Experimental data: patent US20220265819A1

Experiments:
[1] = target: full length pHrodo-labelled aggregated (P301S) 2N4R tau (human) (UniProt P10636); assay: cell-based or functional assay
[2] = target: full length pHrodo-labelled monomeric (P301S) 2N4R tau (human) (UniProt P10636); assay: cell-based or functional assay
Chain of full length pHrodo-labelled monomeric (P301S) 2N4R tau (human) (P10636 other isoform, or with tags, fused parts or gaps P301S P301S): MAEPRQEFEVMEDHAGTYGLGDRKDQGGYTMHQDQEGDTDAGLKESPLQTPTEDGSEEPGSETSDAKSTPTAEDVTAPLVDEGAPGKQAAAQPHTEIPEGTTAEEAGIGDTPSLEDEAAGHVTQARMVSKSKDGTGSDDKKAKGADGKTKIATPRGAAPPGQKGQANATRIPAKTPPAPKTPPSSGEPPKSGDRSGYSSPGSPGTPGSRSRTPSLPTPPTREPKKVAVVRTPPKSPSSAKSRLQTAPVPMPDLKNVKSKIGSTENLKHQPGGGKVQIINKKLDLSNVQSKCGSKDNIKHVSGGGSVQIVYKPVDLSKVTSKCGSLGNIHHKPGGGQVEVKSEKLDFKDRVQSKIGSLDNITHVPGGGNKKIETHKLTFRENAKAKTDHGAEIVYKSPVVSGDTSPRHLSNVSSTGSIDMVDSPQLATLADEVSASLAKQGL

Chain of full length pHrodo-labelled aggregated (P301S) 2N4R tau (human) (P10636 other isoform, or with tags, fused parts or gaps P301S P301S): as above

B1: Clone 1 rabbit monoclonal IgG (antibody, V domains shown)
VH: QSLEESGGGLVKPGGTLTLTCTVSGFSLNNYDMSWVRQAPGKGLEWIGTVSTTYRRYYASWAKGRFTISKTSSTTVDLKMTSLTTEDTATYFCAASGIWGPGTLVTVSL
VL: AQVLTQTTSPVSAAVGGTVTINCQSSQRVYSNYLAWYQQKPGQPPKRLIFLASTLESGVPSRFSGSGSGTQFTLTISDLECDDAATYYCAGTYTGSIWAFGGGTEVVVKG
Which inhibition of uptake of aggregated tau by human iPSC-derived astrocytes [1] does the source give for B1 here?
Its inhibition of uptake of aggregated tau by human iPSC-derived astrocytes is 46.3 % inhibition.

What about the inhibition of uptake of aggregated tau into human iPSC-derived neurons [1] of the same binder?
The inhibition of uptake of aggregated tau into human iPSC-derived neurons was 65 % inhibition.

And the inhibition of uptake of pHrodo-labelled aggregated tau into human iPSC-derived neurons at 4 h [1]?
The inhibition of uptake of pHrodo-labelled aggregated tau into human iPSC-derived neurons at 4 h was 69 % inhibition.

What about the inhibition of uptake of monomeric tau by human iPSC-derived astrocytes [2] of the same binder?
Its inhibition of uptake of monomeric tau by human iPSC-derived astrocytes is 39.8 % inhibition.

What about the inhibition of uptake of monomeric tau into human iPSC-derived neurons [2] of the same binder?
Its inhibition of uptake of monomeric tau into human iPSC-derived neurons is 41.2 % inhibition.
